Measured values from article doi:10.1101/2025.06.02.656870.

Molecular target: chicken IgY (chicken)
Experiment: BLI; Octet SAX biosensors, as described previously (ref. 10); kinetic 1:1 model, global fits over multiple Fab concentrations

Sequence of chicken IgY (chicken) (main, as listed by the source): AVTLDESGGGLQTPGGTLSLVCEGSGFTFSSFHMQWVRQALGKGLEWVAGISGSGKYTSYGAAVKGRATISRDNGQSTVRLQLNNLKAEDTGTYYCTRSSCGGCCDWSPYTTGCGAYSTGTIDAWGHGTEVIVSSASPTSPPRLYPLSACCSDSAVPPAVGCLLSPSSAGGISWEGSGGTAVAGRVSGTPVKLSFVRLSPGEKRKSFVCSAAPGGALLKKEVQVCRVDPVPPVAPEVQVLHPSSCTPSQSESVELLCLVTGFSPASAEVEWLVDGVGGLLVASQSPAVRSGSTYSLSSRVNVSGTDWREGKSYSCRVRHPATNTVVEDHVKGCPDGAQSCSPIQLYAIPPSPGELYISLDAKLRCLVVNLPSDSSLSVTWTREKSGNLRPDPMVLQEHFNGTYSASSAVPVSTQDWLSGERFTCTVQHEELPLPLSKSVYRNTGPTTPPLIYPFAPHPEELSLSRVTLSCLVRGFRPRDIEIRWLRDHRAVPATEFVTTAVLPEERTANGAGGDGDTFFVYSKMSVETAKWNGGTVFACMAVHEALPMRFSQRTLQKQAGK

B1: 2.1^hi Fab (D28HA, K49HR, S64HG, A40LG, Y42LF, A52LS, Q105LH, N108LY) (Fab, V domains shown)
VH: EVQLQESGPSLVKPSQTLSLTCSVTGASITSGYWNWIRKFPGNRLEYMGYISYSGGTYYNPSLKSRISITRDTSKNQYYLQLNSVTTEDTATYYCARDFDVWGAGTTVTVSS
VL: DIVMTQSQKFMSTSVGDRVSVTCKASQNVGTNVGWFQQKPGQSPKSLIYSASYRYSGVPDRFTGSGSGTDFTLTISNVQSEDLAEYFCHQYYSYPLTFGSGTKLEIK
Which Kd does the source give for B1 here?
The Kd was 0.062 nM.
